{"source": "patent CN111138531A", "about": "(INST MILITARY MEDICINE ACADEMY MILITARY SCIENCES PLA, dated 2020)", "biological_target": "GPdM (EBOV, UniProt Q05320 33-632)", "assay": "ELISA on coated truncated GP, method as example 2"}
{"binder": "单克隆抗体8F9 (antibody, V domains shown) VH: EVQLLESGGGLVQPGGSLRLSCAASEFTFSNYAMNWVRQAPGKGLEWVSGISTRGSSTYYADSVKGRFTISRDNSKNTLYLQMNSLRVEDTAVYYCAKDRLSVFGVVLISSDYYGMDVWGQGTTVTVSS VL: AIRMTQSPFSLSASVGDRVTITCRASRTISSYLNWYQKKPGKAPKLLIYAASSLQSGVPSRFSGSGSGTDFTLTISSLQPEDFATYYCQQSYSTPMTFGQGTRLEIKT", "values": [{"measurement": "EC50", "result": 6.2, "unit": "ng/mL"}]}
